Numbered stars: 1 amine (or outer) side, 2 acyl side, 3 side chain; on linkers, the order of the positions; unused ones are H or OH. Bridge positions count the residues as written; N and C are the ends. * marks the point of attachment. C20 diacid = O=C(O)CCCCCCCCCCCCCCCCCCC(=O)*; γGlu = O=C(O)[C@H](CCC(=O)[*:2])N[*:1]
T1: rat amylin receptor (rat calcitonin receptor + rat RAMP 3) (rat, UniProt P32214 25-516; Q9JJ73 23-147)
T1 construct: whole, on cells; Cell membranes of transiently transfected BHK tk'ts 13 cells (Assay VI); also called rAmylin-R; rat amylin 3(a) receptor
T1 sequence (looked up) 1: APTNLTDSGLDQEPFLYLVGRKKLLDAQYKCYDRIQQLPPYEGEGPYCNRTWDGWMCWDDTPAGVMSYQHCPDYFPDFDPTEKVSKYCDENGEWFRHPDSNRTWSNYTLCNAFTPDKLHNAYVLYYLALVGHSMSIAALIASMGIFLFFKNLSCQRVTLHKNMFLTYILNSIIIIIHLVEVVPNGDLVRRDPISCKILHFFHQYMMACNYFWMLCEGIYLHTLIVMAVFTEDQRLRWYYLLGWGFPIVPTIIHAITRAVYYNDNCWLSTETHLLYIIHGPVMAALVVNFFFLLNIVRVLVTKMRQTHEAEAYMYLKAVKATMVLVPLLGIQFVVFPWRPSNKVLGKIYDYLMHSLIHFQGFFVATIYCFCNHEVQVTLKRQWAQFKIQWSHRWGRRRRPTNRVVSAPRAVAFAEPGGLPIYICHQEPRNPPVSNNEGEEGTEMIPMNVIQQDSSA
T1 sequence (looked up) 2: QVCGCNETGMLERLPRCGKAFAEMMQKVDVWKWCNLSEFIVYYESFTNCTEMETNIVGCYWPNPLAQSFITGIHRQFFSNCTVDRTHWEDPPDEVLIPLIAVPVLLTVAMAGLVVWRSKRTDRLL

T2: rat calcitonin receptor (rat, UniProt P32214 25-516)
T2 construct: whole, on cells; Cell membranes of transiently transfected BHK tk'ts 13 cells (Assay VIII); also called rCTR; rCT
T2 sequence (looked up): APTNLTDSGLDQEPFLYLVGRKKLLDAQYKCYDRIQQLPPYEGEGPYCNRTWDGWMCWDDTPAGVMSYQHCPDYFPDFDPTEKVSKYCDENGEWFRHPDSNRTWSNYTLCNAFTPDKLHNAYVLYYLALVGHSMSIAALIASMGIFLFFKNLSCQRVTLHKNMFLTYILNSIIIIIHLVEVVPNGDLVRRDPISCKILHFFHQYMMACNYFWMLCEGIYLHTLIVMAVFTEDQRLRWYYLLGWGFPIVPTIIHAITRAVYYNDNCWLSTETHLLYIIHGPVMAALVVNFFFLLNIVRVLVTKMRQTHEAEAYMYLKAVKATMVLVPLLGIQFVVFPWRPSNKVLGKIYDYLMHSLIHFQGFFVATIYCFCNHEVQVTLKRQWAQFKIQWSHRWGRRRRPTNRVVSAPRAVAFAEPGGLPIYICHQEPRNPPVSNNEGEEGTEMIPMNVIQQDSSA

T3: human calcitonin receptor (human, UniProt P30988 25-474)
T3 construct: whole, on cells; Cell membranes of a stably transfected BHK cell line (Assay VII); also called hCTR; hCT
T3 sequence (looked up): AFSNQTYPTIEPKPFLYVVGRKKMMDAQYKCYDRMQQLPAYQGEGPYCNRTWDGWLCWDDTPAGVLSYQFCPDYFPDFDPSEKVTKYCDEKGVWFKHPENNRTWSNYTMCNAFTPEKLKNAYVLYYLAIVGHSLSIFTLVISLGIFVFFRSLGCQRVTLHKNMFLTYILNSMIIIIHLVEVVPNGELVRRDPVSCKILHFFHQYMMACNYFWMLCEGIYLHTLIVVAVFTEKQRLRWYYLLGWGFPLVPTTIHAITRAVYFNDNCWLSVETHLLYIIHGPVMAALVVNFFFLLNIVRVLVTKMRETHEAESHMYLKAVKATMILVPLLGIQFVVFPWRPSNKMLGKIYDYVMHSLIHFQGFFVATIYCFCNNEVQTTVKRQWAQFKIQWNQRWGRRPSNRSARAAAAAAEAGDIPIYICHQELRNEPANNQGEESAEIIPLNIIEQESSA


How the values were obtained:
[1] = target: T1, rat amylin receptor (rat calcitonin …); assay: SPA competition vs 125I-rat amylin, membranes with rat CTR + rat RAMP3 (Assay VI)
[2] = target: T2, rat calcitonin receptor; assay: SPA competition vs 125I-calcitonin, membranes with rat CTR (Assay VIII)
[3] = target: T2, rat calcitonin receptor; assay: ratio IC50 rat calcitonin receptor / IC50 rat amylin receptor
[4] = target: T3, human calcitonin receptor; assay: ratio IC50 human calcitonin receptor / IC50 human amylin receptor
Procedure: The resulting pellet was resuspended, homogenized and centrifuged (20.000 rpm, 15 min) in a buffer containing 20 mM Na-HEPES and 0.1 mM EDTA (pH 7.4, buffer 2). The resulting pellet was resuspended in buffer 2 and protein concentration was measured (BCA protein Assay, Pierce). The homogenate was kept cold during the whole procedure. The membranes were kept at −80° C. until use. The assay was performed in a 384 well Optiplate (PerkinElmer) in a total volume of 40 ul. Membranes were mixed with SPA beads. Final concentration of membranes 35 ng/μL final and SPA beads was 0.05 mg/well. Test-compounds were dissolved in DMSO and further diluted in assay buffer (50 mM Hepes, pH 7.4, 1 mM CaCl2, 5 mM MgCl₂, 0.1% OA and 0.02% Tween20). […] The final mixture was incubated with shaking at 400 rpm for 120 min at 25° C. prior to centrifugation (1500 rpm, 10 min). Samples were analyzed on TopCounter™ (Packard). The IC₅₀ was calculated using (one site binding competition analysis) GraphPad Prism5 as a measure of receptor affinity.
Membranes were prepared in the following way; the cells were rinsed with PBS and incubated with Versene for approximately 5 min before harvesting. The cells were flushed with PBS and the cell-suspension was centrifuged for 5 min at 1000 rpm. Cells were homogenized (Ultrathurrax) in a buffer containing 20 mM Na-HEPES and 10 mM EDTA (pH 7.4) and centrifuged at 20.000 rpm for 15 min. The resulting pellet was resuspended, homogenized and centrifuged (20.000 rpm, 15 min) in a buffer containing 20 mM Na-HEPES and 0.1 mM EDTA (pH 7.4, buffer 2). The resulting pellet was resuspended in buffer 2 and protein concentration was measured (BCA protein Assay, Pierce). The homogenate was kept cold during the whole procedure. The membranes were kept at −80° C. until use. Assay was performed in a 384 well Optiplate (PerkinElmer) in a total volume of 40 ul. Membranes were mixed with SPA beads.

Row | Binder | IC50 [1] [nM] | IC50 [2] [nM] | Ratio rCT/rAmylin binding [3] | Ratio hCT/hAmylin binding [4]
1 | KCNTATCATQRLANFLRHSSPNFGAIPSSTNVGSETY (C20 diacid-gGlu on alpha-amino of the N-terminal residue; Cys2-Cys7 disulfide; C-terminal amide (as human amylin), Acylated analogue of human amylin; also called compound 23) [N^α1-[(4S)-4-carboxy-4-(19-carboxynonadecanoylamino)butanoyl]-[Arg17,Pro21,Pro27,Glu35]-h-amylin] | 1.12 | 79.9 | 71.3 | 25
2 | KCNTATCATQRLAEFLRHSSPNFGAIPSSTNVGSNTY (C20 diacid-gGlu-2xOEG on alpha-amino of the N-terminal residue; Cys2-Cys7 disulfide; C-terminal amide (as human amylin), Acylated analogue of human amylin; also called compound 19) | 1.02 | 95.6 | 93.6 | 36.7
3 | KCNTATCATQRLANFLRHSSPNFGAIPSSTNVGRNTY (C20 diacid-gGlu on alpha-amino of the N-terminal residue; Cys2-Cys7 disulfide; C-terminal amide (as human amylin), Acylated analogue of human amylin; also called compound 39) [N^α1-[(4S)-4-carboxy-4-(19-carboxynonadecanoylamino)butanoyl]-[Arg17,Pro21,Pro27,Arg34]-h-amylin] | 1.77 | 96.4 | 54.5 | 29
4 | KCNTATCATQRLANFLRHSSPNFGAIPSSTNVGSKTY (C20 diacid-gGlu on alpha-amino of the N-terminal residue; Cys2-Cys7 disulfide; C-terminal amide (as human amylin), Acylated analogue of human amylin; also called compound 34) [N^α1-[(4S)-4-carboxy-4-(19-carboxynonadecanoylamino)butanoyl]-[Arg17,Pro21,Pro27,Lys35]-h-amylin] | 1.72 | 89.2 | 52 | 64.4
5 | {C20 diacid-γGlu}-KCNTATCATQRLANFLRHSSPNFGAIPSSTPVGSETY-NH2 (disulfide 2-7; SMILES CC[C@H](C)[C@H](NC(=O)[C@H](C)NC(=O)CNC(=O)[C@H](Cc1ccccc1)NC(=O)[C@H](CC(N)=O)NC(=O)[C@@H]1CCCN1C(=O)[C@H](CO)NC(=O)[C@H](CO)NC(=O)[C@H](Cc1c[nH]cn1)NC(=O)[C@H](CCCNC(=N)N)NC(=O)[C@H](CC(C)C)NC(=O)[C@H](Cc1ccccc1)NC(=O)[C@H](CC(N)=O)NC(=O)[C@H](C)NC(=O)[C@H](CC(C)C)NC(=O)[C@H](CCCNC(=N)N)NC(=O)[C@H](CCC(N)=O)NC(=O)[C@@H](NC(=O)[C@H](C)NC(=O)[C@@H]1CSSC[C@H](NC(=O)[C@H](CCCCN)NC(=O)CC[C@H](NC(=O)CCCCCCCCCCCCCCCCCCC(=O)O)C(=O)O)C(=O)N[C@@H](CC(N)=O)C(=O)N[C@@H]([C@@H](C)O)C(=O)N[C@@H](C)C(=O)N[C@@H]([C@@H](C)O)C(=O)N1)[C@@H](C)O)C(=O)N1CCC[C@H]1C(=O)N[C@@H](CO)C(=O)N[C@@H](CO)C(=O)N[C@H](C(=O)N1CCC[C@H]1C(=O)N[C@H](C(=O)NCC(=O)N[C@@H](CO)C(=O)N[C@@H](CCC(=O)O)C(=O)N[C@H](C(=O)N[C@@H](Cc1ccc(O)cc1)C(N)=O)[C@@H](C)O)C(C)C)[C@@H](C)O, Acylated analogue of human amylin; also called compound 28) | 1.22 | 54.9 | 44.9 | 20.5
